Key:
[1] = target: MapZ cytoplasmic domain (MapZ_(cyto)), wild type, residues 1-159 (S. pneumoniae (strain ATCC BAA-255/R6)) (UniProt Q8DR55); assay: NMR titration; 1H-15N BEST-TROSY of 30 µM 15N MapZ_(cyto) with polymeric FtsZb at 1:1, 1:3, 1:4 and 1:6; 30 mM HEPES, 200 mM KCl, pH 7.5, 10 mM GTP and MgCl2, 5 °C; peak intensity decrease; apparent constants, 1:1 complex assumed
[2] = target: MapZ cytoplasmic domain (MapZ_(cyto)), wild type, residues 1-159 (S. pneumoniae (strain ATCC BAA-255/R6)) (UniProt Q8DR55); assay: NMR titration; 1H-15N BEST-TROSY of 15N MapZ_(cyto) (30 to 50 µM, one sample for each ratio) with unlabelled monomeric FtsZb (no GTP, no MgCl2), 5 °C; peak intensity decrease; apparent constants, 1:1 complex assumed

Chain of UniProt Q8DR55 (Q8DR55 other isoform, or with tags, fused parts or gaps): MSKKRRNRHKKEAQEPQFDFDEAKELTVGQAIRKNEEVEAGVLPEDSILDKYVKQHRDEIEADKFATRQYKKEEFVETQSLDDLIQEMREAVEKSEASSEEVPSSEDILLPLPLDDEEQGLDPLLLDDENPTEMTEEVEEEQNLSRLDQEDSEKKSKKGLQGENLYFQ

Kd [1]: 10 to 100 µM
Kd [2]: 10 to 100 µM
Substance: FtsZb, wild-type FtsZ from S. pneumoniae with an N-terminal glycine left after removal of GST by TEV protease (natural protein)

From article PMC7055233
